Series [1] deals with T1, TTHB023 (PfmR) (Thermus thermophilus HB8) (UniProt Q53WD9).
T1 sequence: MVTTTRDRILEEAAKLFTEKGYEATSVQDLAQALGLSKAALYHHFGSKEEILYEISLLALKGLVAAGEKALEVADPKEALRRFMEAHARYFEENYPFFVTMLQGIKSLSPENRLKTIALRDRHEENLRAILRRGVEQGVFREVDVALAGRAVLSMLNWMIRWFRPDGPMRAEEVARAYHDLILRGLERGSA
Briefly: BLI. To be noted: BLI: 20 mM Tris-Cl pH 7.7, 100 mM NaCl, 1 mM EDTA, 0.05% Tween 20, 1.4 nM biotin-DNA loaded at 37 °C, 3.7-300 nM protein; EMSA: 1x NEB CutSmart buffer, 55 °C …. For orientation: A gel shift assay detects complexes by their altered migration in electrophoresis.

Series [2] deals with T2, TTHB023 (PfmR) (Thermus thermophilus HB8, UniProt Q53WD9 1-191).
T2 sequence: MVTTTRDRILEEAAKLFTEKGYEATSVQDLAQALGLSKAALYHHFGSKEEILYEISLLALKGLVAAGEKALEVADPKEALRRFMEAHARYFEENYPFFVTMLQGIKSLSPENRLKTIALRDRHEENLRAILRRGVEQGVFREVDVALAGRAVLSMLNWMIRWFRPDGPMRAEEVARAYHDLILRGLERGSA
Put plainly: BLI; printed koff/kon (1.072e-4/2.350e5) does not match printed KD; BLI: 20 mM Tris-Cl pH 7.7, 100 mM NaCl, 1 mM EDTA, 0.05% Tween 20, 1.4 nM biotin-DNA loaded at 37 °C, 3.7-300 nM protein; EMSA: 1x NEB CutSmart buffer, 55 °C 20 min, 1 ng DNA in 5 µL, 10% native PAGE. To be noted: protein: recombinant; chain copies: 2; label: 5' biotin-dT on strand 2; blunt. For orientation: BLI is a label-free optical method that tracks binding on a fibre tip over time.

For series [3], the target named is T2, TTHB023 (PfmR). Put plainly: BLI; BLI: 20 mM Tris-Cl pH 7.7, 100 mM NaCl, 1 mM EDTA, 0.05% Tween 20, 1.4 nM biotin-DNA loaded at 37 °C, 3.7-300 nM protein; EMSA: 1x NEB CutSmart buffer, 55 °C 20 min, 1 ng DNA in 5 µL, 10% native PAGE. The note with it: protein: recombinant; chain copies: 2; label: 5' biotin-dT on strand 2; blunt.
For series [4], the target named is T2, TTHB023 (PfmR). Put plainly: BLI; slight effect only at 300 nM, nonspecific; Kd extrapolated; BLI: 20 mM Tris-Cl pH 7.7, 100 mM NaCl, 1 mM EDTA, 0.05% Tween 20, 1.4 nM biotin-DNA loaded at 37 °C, 3.7-300 nM protein; EMSA: 1x NEB CutSmart buffer, 55 °C 20 min, 1 ng DNA in 5 µL, 10% native PAGE. The note with it: protein: recombinant; chain copies: 2; label: 5' biotin-dT on strand 2; blunt.

For ten molecules, Kd results are on record in PMC7022988, “General and Genomic DNA-Binding Specificity for the Thermus thermophilus HB8 Transcription Factor TTHB023”.

In series [1], “CTAGGAATTCGTGCAGAGGTGAATCTGACCGATCGGTCAGTTACCATCCCTCCAGAAGCTTGGACA (double strand) [ST2_B023_R6_wt consensus (BLI probe)]” yielded a Kd of 2.1 nM.

B1: m1 (dsDNA)
DNA 1: CTAGGAATTCGTGCAGAGGTGAATGTGACCGATCGGTCAGTTACCATCCCTCCAGAAGCTTGGACA
DNA 2: TGTCCAAGCTTCTGGAGGGATGGTAACTGACCGATCGGTCACATTCACCTCTGCACGAATTCCTAG
B1: the Kd with TTHB023 (PfmR) [2] stood at 4.56 nM.

B2: m8 (dsDNA)
DNA 1: CTAGGAATTCGTGCAGAGGTGAATCTGACCGCTCGGTCAGTTACCATCCCTCCAGAAGCTTGGACA
DNA 2: TGTCCAAGCTTCTGGAGGGATGGTAACTGACCGAGCGGTCAGATTCACCTCTGCACGAATTCCTAG
Consider B2, for which, in the series with TTHB023 (PfmR) [3], the Kd came to 59.5 nM.

B3: m4 (dsDNA)
DNA 1: CTAGGAATTCGTGCAGAGGTGAATCTGCCCGATCGGTCAGTTACCATCCCTCCAGAAGCTTGGACA
DNA 2: TGTCCAAGCTTCTGGAGGGATGGTAACTGACCGATCGGGCAGATTCACCTCTGCACGAATTCCTAG
On to B3, for which, in the series with TTHB023 (PfmR) [3], the Kd turned out to be 27.8 nM.

B4: m5 (dsDNA)
DNA 1: CTAGGAATTCGTGCAGAGGTGAATCTGATCGATCGGTCAGTTACCATCCCTCCAGAAGCTTGGACA
DNA 2: TGTCCAAGCTTCTGGAGGGATGGTAACTGACCGATCGATCAGATTCACCTCTGCACGAATTCCTAG
B4: in the series with TTHB023 (PfmR) [3], the Kd stood at 53.1 nM.

B5: m2 (dsDNA)
DNA 1: CTAGGAATTCGTGCAGAGGTGAATCGGACCGATCGGTCAGTTACCATCCCTCCAGAAGCTTGGACA
DNA 2: TGTCCAAGCTTCTGGAGGGATGGTAACTGACCGATCGGTCCGATTCACCTCTGCACGAATTCCTAG
For B5, in the series with TTHB023 (PfmR) [3], the Kd amounted to 23 nM.

B6: m3 (dsDNA)
DNA 1: CTAGGAATTCGTGCAGAGGTGAATCTCACCGATCGGTCAGTTACCATCCCTCCAGAAGCTTGGACA
DNA 2: TGTCCAAGCTTCTGGAGGGATGGTAACTGACCGATCGGTGAGATTCACCTCTGCACGAATTCCTAG
In the case of B6, the Kd in the series with TTHB023 (PfmR) [3] stood at 6.62 nM.

B7: m7 (dsDNA)
DNA 1: CTAGGAATTCGTGCAGAGGTGAATCTGACCCATCGGTCAGTTACCATCCCTCCAGAAGCTTGGACA
DNA 2: TGTCCAAGCTTCTGGAGGGATGGTAACTGACCGATGGGTCAGATTCACCTCTGCACGAATTCCTAG
As to B7, the Kd with TTHB023 (PfmR) [3] is 205 nM.

B8: m6 (dsDNA)
DNA 1: CTAGGAATTCGTGCAGAGGTGAATCTGACGGATCGGTCAGTTACCATCCCTCCAGAAGCTTGGACA
DNA 2: TGTCCAAGCTTCTGGAGGGATGGTAACTGACCGATCCGTCAGATTCACCTCTGCACGAATTCCTAG
Take B8: the Kd with TTHB023 (PfmR) [3] came to 279 nM.

B9: REPSAis control (dsDNA)
DNA 1: CTAGGAATTCGTGCAGAGGTGAATCGTCATAGAATTCGTTACCATCCCTCCAGAAGCTTGGACA
DNA 2: TGTCCAAGCTTCTGGAGGGATGGTAACGAATTCTATGACGATTCACCTCTGCACGAATTCCTAG
In the case of B9, the Kd with TTHB023 (PfmR) [4] is 138000 nM.

The term Kd denotes the equilibrium constant for the complex coming apart.
